Data as given in publication PMC8207774, “NtbHLH1, a JAF13-like bHLH, interacts with NtMYB6 to enhance proanthocyanidin accumulation in Chinese Narcissus” (BMC Plant Biology, 2021).

Biological target: T1, NtbHLH1 (Chinese narcissus (Narcissus tazetta L. …, UniProt A0A517FM44 1-631))
T1 sequence (looked up): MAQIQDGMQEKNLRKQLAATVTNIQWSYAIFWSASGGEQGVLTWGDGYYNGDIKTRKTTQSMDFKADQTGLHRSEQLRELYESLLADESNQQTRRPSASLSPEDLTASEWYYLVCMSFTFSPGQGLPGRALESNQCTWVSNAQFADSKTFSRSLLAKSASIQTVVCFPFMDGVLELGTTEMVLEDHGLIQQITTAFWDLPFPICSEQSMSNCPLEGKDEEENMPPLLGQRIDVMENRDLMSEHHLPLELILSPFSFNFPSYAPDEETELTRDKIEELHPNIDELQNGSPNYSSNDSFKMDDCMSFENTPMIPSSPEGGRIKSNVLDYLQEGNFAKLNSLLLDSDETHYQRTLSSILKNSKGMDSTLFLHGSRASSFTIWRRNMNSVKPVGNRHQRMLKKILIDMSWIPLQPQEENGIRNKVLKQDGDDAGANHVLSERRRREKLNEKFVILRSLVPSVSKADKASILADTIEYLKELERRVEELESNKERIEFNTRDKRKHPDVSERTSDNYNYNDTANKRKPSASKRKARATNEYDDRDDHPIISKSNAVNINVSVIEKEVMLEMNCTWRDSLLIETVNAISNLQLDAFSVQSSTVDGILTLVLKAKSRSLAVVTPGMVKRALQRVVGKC
Assay: cell-based or functional assay

B1: NtMYB6 (natural protein, UniProt A0A1U9X216 1-249, looked up)
chain: MGRAPCCSKVGLHRGPWTAREDALLTNYIQCHGEGNWRSLPKNAGLLRCGKSCRLRWMNYLRPDIKRGNIGPEEEDLIIRLHSLLGNRWSIIAGRLPGRTDNEIKNYWNSHLSKKLKKQGIQVRGNLSSKQSKSSKMNNNDNNNNLEKRKNIKETPKIKIHAPKPTRFTRTISQSSSSCQANNVENVTSEDERCDIPWTNAESQDDIFAPGSWNYELFDIDRVYQEYSQLLNGEDDQFPMASFTESVFA
Question: Which results are given for B1?
Answer: NtDFR promoter activity, dual luciferase assay in N. benthamiana leaves, co-infiltration of NtbHLH1 and NtMYB6 compared to NtMYB6 alone: ~8 fold; NtDFR promoter activity, dual luciferase assay in N. benthamiana leaves, co-infiltration of NtbHLH1 and NtMYB6 compared to the control: ~14 fold
